Results: the Immune Epitope Database (IEDB)

What was measured:
HLA-A*02:01 [1] = assay: IEDB peptide-MHC binding, purified MHC/competitive/fluorescence; ≥ and ≤ were set here for values at or beyond the usual limits of such assays
HLA-B*44:02 = assay: IEDB peptide-MHC binding, purified MHC/competitive/radioactivity; filed as Kd, often an IC50 or EC50 that approximates it; ≥ and ≤ were set here for values at or beyond the usual limits of such assays
HLA-A*24:02 = assay: as above; conditions: source organism: Dengue virus 1 Brazil/97-11/1997
HLA-A*03:01 = assay: IEDB peptide-MHC binding, purified MHC/direct/fluorescence; filed as Kd, often an IC50 or EC50 that approximates it; ≥ and ≤ were set here for values at or beyond the usual limits of such assays; conditions: source organism: Mycobacterium tuberculosis str. Haarlem
HLA-B*15:01 = assay: as above; conditions: source organism: Mycobacterium tuberculosis str. Haarlem
HLA-A*02:01 [2] = assay: as above
HLA-A*69:01 = assay: as above
HLA-A*01:01 [3] = assay: IEDB peptide-MHC binding, purified MHC/competitive/radioactivity; filed as Kd, often an IC50 or EC50 that approximates it; ≥ and ≤ were set here for values at or beyond the usual limits of such assays
HLA-A*26:01 = assay: as above
HLA-A*30:01 = assay: as above
HLA-B*44:03 = assay: as above
HLA-A*02:01 [4] = assay: IEDB peptide-MHC binding, purified MHC/competitive/fluorescence; filed as Kd, often an IC50 or EC50 that approximates it; ≥ and ≤ were set here for values at or beyond the usual limits of such assays
HLA-A*01:01 [5] = assay: IEDB peptide-MHC binding, purified MHC/direct/fluorescence; filed as Kd, often an IC50 or EC50 that approximates it; ≥ and ≤ were set here for values at or beyond the usual limits of such assays; conditions: source organism: Mammarenavirus lassaense
[6] = source organism: Zaire ebolavirus
[7] = source organism: Dengue virus 3 Martinique/1243/1999
[8] = source organism: Mycobacterium avium 104
[9] = source organism: Dengue virus 4 Philippines/H241/1956
[10] = source organism: Dengue virus 1 Brazil/97-11/1997
[11] = source organism: Vaccinia virus WR
[12] = source organism: Dengue virus 2 Jamaica/1409/1983
[13] = source organism: Giardia lamblia ATCC 50803
[14] = source organism: Dengue virus 3 Sri Lanka/1266/2000
[15] = source organism: Oligoflexia bacterium

NLEHGLFPQ gave an IC50 (HLA-A*02:01 [1]; [6]) of at least 304000 nM.
For PECPSASRAW, the Kd (HLA-B*44:02; [7]) was 1120 nM.
In the case of EFFLMVLLI, the Kd (HLA-A*24:02) is reported as at least 40100 nM.
RMGAAVTPY was tested, and the Kd (HLA-A*03:01) was 254 nM and the Kd (HLA-B*15:01) was 98.8 nM.
VYLPGRGGV showed a Kd (HLA-A*02:01 [2]; [8]) of at least 20000 nM and a Kd (HLA-A*69:01; [8]) of at least 20000 nM.
For LTDGPERVIL, the Kd (HLA-A*01:01 [3]; [7]) was 11800 nM.
Work on ELITEQMAPH yielded a Kd (HLA-A*26:01; [9]) of 6060 nM.
Sequence MTSRMLLNRF has a Kd (HLA-A*01:01 [3]; [10]) of 12300 nM and a Kd (HLA-A*26:01; [10]) of 2180 nM.
Work on KVVRLTPQV yielded a Kd (HLA-A*30:01; [11]) of 178 nM.
KCLNIMLGK showed a Kd (HLA-A*30:01; source organism: Mammarenavirus brazilense) of 24.9 nM.
Sequence QLAKAIITP has an IC50 (HLA-A*02:01 [1]; source organism: Vaccinia virus Copenhagen) of at least 96300 nM.
VEGLSGATW gave a Kd (HLA-B*44:02; [10]) of 30 nM and a Kd (HLA-B*44:03; [10]) of 89.1 nM.
Sequence LILAKPKET has an IC50 (HLA-A*02:01 [1]; source organism: Sudan ebolavirus) of 10800 nM.
EEEEAGVLW showed a Kd (HLA-B*44:02; [12]) of 84.7 nM and a Kd (HLA-B*44:03; [12]) of 162 nM.
With GMSLLEYGV the Kd (HLA-A*02:01 [2]; [13]) was 3.5 nM and the Kd (HLA-A*69:01; [13]) was at least 20000 nM.
In the case of RLSNGMPTV, the Kd (HLA-A*30:01; [11]) is reported as 9270 nM.
With SSLPPLESD the IC50 (HLA-A*02:01 [1]; [6]) was at least 170000 nM.
For KLIIHNPEL, the Kd (HLA-A*02:01 [4]; source organism: Vaccinia virus) was 2 nM.
EEYVDYMPVM gave a Kd (HLA-B*44:03; [9]) of 869 nM.
GIFPYSIPAT showed a Kd (HLA-A*30:01; [14]) of at least 70400 nM.
Sequence ASLIPDATY has a Kd (HLA-A*01:01 [5]) of 17100 nM.
Work on IESALNDTW yielded a Kd (HLA-B*44:02; [12]) of 127 nM and a Kd (HLA-B*44:03; [12]) of 67.9 nM.
SLAALFYSL gave a Kd (HLA-A*02:01 [4]; source organism: Bacillus anthracis str. A0488) of 1.8 nM.
EEFWKLVDR was tested, and the Kd (HLA-B*44:03; [14]) was 3110 nM.
EYSGGLHGV was tested, and the Kd (HLA-A*02:01 [2]; [15]) was 18000 nM and the Kd (HLA-A*69:01; [15]) was 460 nM.
For SAKNSWLNL, the Kd (HLA-A*30:01; [11]) was 0.574 nM.
With SELFRSRLDSY the Kd (HLA-B*44:02; source organism: Homo sapiens) was 5.4 nM.
GELCEDTMTY showed a Kd (HLA-B*44:03; [10]) of 25 nM.
